The results in this text go back to patent publication US20260232827A1 (Zymeworks, published 2026).

For test [1], the target named is T1, Construct 6 (NaPi2b del 317-333) (human, UniProt O95436 1-690).
T1 construct: Deletion construct on HEK293-6e cells; also called CL_#29919
T1 sequence: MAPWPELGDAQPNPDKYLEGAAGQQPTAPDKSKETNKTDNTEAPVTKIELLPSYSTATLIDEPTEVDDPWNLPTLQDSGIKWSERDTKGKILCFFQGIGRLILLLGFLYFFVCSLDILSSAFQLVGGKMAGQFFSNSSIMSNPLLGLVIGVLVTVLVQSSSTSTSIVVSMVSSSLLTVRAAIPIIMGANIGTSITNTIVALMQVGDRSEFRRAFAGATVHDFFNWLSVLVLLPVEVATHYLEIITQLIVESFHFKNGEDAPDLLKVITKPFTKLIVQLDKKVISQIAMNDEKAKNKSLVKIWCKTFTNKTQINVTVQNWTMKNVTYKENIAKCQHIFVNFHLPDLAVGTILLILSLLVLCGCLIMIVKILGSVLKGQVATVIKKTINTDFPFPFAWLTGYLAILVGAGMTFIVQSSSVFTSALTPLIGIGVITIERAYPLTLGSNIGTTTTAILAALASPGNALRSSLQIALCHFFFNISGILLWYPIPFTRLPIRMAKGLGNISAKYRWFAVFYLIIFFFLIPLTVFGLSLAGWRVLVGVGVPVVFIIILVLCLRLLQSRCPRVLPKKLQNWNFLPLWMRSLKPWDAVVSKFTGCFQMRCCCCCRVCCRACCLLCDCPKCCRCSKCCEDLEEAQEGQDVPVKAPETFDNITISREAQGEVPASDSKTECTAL
Briefly: flow cytometry, HEK293-6e cells transfected with Construct 6.
Procedure: (§1) Following transfection, cells were seeded at 50,000 cells/well in conical-bottom 96-well plates and treated with a serial dilution of test antibody for 24 hours at 4° C. to prevent internalization. Cells were treated with final concentrations of all humanized antibodies of 200, 20, or 2 nM. Cells were treated with final concentrations of the reference anti-NaPi2a rabbit antibody of 50, 5, or 0.5 nM. […] Following incubation and washing, fluorescence was detected by flow cytometry on a BD LSRFortessa™ Cell Analyzer (BD Biosciences, Franklin Lake, NJ) with 1,000 minimum events collected per well. […] Background-subtracted AF647 Mean Fluorescence Intensity (MFI) values were calculated by subtracting the average MFI of three technical replicates of unstained (no primary antibody) cells.

Test [2] has as its target T2, Construct 7 (NaPi2b del 317-326) (human, UniProt O95436 1-690).
T2 construct: Deletion construct on HEK293-6e cells; also called CL_#29921
T2 sequence: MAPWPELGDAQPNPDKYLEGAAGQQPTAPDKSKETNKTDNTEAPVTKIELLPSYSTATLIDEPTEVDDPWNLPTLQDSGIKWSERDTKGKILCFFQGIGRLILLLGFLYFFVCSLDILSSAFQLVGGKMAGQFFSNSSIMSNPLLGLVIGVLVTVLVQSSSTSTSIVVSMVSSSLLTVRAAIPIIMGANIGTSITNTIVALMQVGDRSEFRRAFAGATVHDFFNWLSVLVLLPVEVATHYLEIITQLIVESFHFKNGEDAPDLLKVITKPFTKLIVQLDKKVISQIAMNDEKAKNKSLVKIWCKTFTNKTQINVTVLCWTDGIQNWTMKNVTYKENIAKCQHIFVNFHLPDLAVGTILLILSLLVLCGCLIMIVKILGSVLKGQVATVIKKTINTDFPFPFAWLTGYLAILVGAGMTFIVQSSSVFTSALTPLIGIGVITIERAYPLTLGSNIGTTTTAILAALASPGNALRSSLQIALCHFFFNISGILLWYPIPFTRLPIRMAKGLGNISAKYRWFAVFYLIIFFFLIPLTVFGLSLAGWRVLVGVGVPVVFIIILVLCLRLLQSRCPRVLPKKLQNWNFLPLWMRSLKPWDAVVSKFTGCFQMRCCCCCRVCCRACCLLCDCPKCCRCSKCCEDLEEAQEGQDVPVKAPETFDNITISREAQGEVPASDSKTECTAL
In words: flow cytometry, HEK293-6e cells transfected with Construct 7. (In flow cytometry, cells or beads pass a laser one at a time.)
Procedure: as §1

For test [3], the target named is T3, human sodium-dependent phosphate transporter 2B (NaPi2b) (human, UniProt O95436 1-690).
T3 construct: UniProt ID is given as 095436 [sic]; also called hNaPi2b; Hu NaPi2b
T3 sequence: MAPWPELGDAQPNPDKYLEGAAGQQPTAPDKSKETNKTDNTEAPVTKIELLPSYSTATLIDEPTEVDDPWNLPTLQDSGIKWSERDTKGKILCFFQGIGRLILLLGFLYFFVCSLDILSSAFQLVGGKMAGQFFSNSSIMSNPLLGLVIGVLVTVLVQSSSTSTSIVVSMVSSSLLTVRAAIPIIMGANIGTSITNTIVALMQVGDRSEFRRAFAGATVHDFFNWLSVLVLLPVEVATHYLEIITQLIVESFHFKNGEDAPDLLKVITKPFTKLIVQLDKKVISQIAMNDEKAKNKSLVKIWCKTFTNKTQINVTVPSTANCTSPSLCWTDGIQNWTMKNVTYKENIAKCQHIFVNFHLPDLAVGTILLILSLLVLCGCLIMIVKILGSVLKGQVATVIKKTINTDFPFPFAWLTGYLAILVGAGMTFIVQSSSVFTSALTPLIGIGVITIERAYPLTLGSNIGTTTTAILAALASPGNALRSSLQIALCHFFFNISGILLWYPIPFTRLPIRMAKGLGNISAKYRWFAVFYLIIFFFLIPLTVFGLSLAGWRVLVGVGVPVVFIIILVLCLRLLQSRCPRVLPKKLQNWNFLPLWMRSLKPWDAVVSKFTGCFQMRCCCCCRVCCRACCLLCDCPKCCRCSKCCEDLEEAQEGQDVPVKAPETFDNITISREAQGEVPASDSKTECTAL
Briefly: flow cytometry on IGROV-1 cells (endogenous NaPi2b), 24 h at 4 C, anti-human IgG Fc AF647, APC-A GeoMean.
Procedure: Cells were maintained under standard culture conditions (37° C./5% CO₂) until assay set-up. […] Cells were removed from culture vessels using Cell Dissociation Buffer (Invitrogen, Waltham, MA), seeded at 50,000 cells/well in conical-bottom 96-well plates, and treated with test antibody or antibody-drug conjugate for 24 hours at 4° C. to prevent internalization. […] Following incubation and washing, fluorescence was detected by flow cytometry on a BD LSRFortessa™ Cell Analyzer (BD Biosciences, Franklin Lake, NJ) with 1,000 minimum events collected per well.

The target in test [4] is T4, cynomolgus monkey NaPi2b (cynomolgus monkey, UniProt O95436 1-690 (human entry)).
T4 construct: also called Cyno NaPi2b; Cy NaPi2b
T4 chain: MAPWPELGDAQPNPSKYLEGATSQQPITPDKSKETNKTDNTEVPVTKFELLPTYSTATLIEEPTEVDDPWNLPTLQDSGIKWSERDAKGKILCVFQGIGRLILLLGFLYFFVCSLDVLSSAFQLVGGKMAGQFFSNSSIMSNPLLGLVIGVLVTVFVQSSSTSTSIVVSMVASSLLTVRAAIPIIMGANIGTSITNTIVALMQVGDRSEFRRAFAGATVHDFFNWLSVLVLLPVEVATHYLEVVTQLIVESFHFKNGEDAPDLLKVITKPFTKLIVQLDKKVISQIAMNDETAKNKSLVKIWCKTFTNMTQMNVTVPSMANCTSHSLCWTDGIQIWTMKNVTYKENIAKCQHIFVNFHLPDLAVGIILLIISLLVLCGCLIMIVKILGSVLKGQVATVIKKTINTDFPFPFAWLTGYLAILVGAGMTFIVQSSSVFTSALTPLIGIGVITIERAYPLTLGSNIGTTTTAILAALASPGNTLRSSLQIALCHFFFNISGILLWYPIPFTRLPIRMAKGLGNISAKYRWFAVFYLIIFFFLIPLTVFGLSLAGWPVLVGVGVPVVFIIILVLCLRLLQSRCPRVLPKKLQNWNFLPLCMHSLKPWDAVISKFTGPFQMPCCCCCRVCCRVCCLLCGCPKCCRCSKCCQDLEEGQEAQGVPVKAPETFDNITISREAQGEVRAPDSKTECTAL
In words: flow cytometry, HEK293-6e cells transfected with cynomolgus NaPi2b; apparent Kd.
Procedure: (§2) Briefly, HEK293-6e cells were transfected for ~24 hours to transiently express human NaPi2b, cynomolgus or mouse NaPi2b, at 1 μg of DNA per 1 million cells. Following transfection, 50,000 cells per well were seeded in V-bottom 96-well plates and incubated with 200 nM of primary antibody for 18-24 hours at 4° C. to prevent internalization. […] Following staining and washing, fluorescence was detected by flow cytometry on BD LSRFortessa™ Cell Analyzer (BD Biosciences, Franklin Lake, NJ) with 10,000 minimum events collected per well. The AF647/APC-A GeoMean (fluorescence signal geometric mean, proportional to anti-Human AF647 binding) was calculated for the live singlet cell population for each primary antibody using FlowJo™ v8 software (BD Biosciences, Franklin Lake, NJ). The Bmax and Kd of each primary antibody were calculated using GraphPad Prism Version 9 (GraphPad Software, San Diego, CA)

Test [5] addresses T4, cynomolgus monkey NaPi2b. In words: flow cytometry, HEK293-6e cells transfected with cynomolgus NaPi2b.
Procedure: as §2
Test [6] concerns the target T5, KLH (Sigma-Aldrich, H8283).
T5 construct: Coating of the non-specific ELISA
In words: non-specific ELISA, KLH coated, antibody 100 nM. In general terms: In an ELISA, binding on a coated surface is turned into a signal by an enzyme label.
Procedure: NS-ELISA was used to measure the propensity of the antibodies to bind to a range of biomolecules to emulate the undesirable non-specific interactions to biological matrices in vivo as described below.
NS-ELISA was carried out in Corning® 96-well EIA/RIA Easy Wash™ Clear Flat Bottom Polystyrene High Bind Microplate coated overnight at 4° C. with 50 μL of Heparin (Sigma, H3149) diluted with 50 mM sodium carbonate pH 9.6 to a final concentration of 250 μg/mL. The plate was incubated for 2 days at room temperature, wells that were coated with heparin were not covered to allow air dry. […] 50 μL each of insulin, KLH, dsDNA and ssDNA were added to a 96 well plate, followed by the incubation at 37° C. for 2 h. The coating materials were removed, and the plate was blocked with 200 μL of Gibco™ PBS pH7.4, 0.1% Tween®20, and incubated for 1 h at room temperature with shaking at 200 rpm. The plate was washed 3 times with Gibco™ PBS pH7.4, 0.1% Tween 20. 50 μL of each mAb at 100 nM (15 mg/mL) in Gibco™ PBS pH 7.4, 0.1% Tween®20 was added in duplicate to the wells and incubated for 1 h at room temperature with shaking at 200 rpm. […] Plates were incubated for 1 h at room temperature, with shaking at 200 rpm. The plate was washed three times with Gibco™ PBS pH7.4, 0.1% Tween 20, and 100 μL of TMB substrate (Cell Signaling Technology©, 7004P6) added to each well. […] Binding scores were calculated as the ratio of the ELISA signal of the antibody to the signal of a well containing buffer instead of the primary antibody.

Test [7] addresses T3, human sodium-dependent phosphate …. Briefly: flow cytometry, HEK293-6e cells transfected with human NaPi2b.
Procedure: as §2
Another test addresses T6, mouse NaPi2b (mouse, UniProt Q9DBP0 1-697).
T6 construct: also called Ms NaPi2b; CL #13476
T6 sequence: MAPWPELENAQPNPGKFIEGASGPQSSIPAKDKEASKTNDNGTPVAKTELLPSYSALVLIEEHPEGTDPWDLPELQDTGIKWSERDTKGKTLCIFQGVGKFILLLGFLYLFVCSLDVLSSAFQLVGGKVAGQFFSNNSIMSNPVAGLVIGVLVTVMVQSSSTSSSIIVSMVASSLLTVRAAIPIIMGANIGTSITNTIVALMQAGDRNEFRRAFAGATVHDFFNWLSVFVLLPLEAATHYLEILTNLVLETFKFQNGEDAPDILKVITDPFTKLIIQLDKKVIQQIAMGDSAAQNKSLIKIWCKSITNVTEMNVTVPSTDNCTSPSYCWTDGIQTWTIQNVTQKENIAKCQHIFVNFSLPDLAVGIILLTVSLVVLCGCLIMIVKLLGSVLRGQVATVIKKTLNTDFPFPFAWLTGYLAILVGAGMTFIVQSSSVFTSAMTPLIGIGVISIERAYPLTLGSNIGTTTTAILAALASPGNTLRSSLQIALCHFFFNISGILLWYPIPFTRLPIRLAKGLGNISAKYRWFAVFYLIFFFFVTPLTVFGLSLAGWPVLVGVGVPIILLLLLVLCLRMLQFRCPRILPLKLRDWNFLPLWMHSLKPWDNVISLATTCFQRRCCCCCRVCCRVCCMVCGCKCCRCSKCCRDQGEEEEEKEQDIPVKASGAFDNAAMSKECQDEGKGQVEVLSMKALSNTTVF
Briefly: flow cytometry, HEK293-6e cells transfected with mouse NaPi2b; apparent Kd.

Test [8] addresses T3, human sodium-dependent phosphate …. In words: flow cytometry, IGROV-1 cells (endogenous NaPi2b); apparent Kd.
Procedure: Briefly, cells were seeded at 50,000 cells/well in conical-bottom 96-well plates and treated with test antibody for 24 hours at 4° C. to prevent internalization. […] Following incubation and washing, fluorescence was detected by flow cytometry on a BD LSRFortessa™ Cell Analyzer (BD Biosciences, Franklin Lake, NJ) with 1,000 minimum events collected per well.
Test [9] shares this target. Briefly: flow cytometry, IGROV-1 cells (endogenous NaPi2b). The arrangement: unit not given here.
Test [10] has the same target. In words: flow cytometry, HEK293-6e cells transfected with human NaPi2b; apparent Kd.
Procedure: as §2

Procedure for mouse NaPi2b: as §2

B1: v21995 (palivizumab, anti-RSV negative control) (antibody, human IgG1, kappa, V domains shown)
VH: QVTLRESGPALVKPTQTLTLTCTFSGFSLSTSGMSVGWIRQPPGKALEWLADIWWDDKKDYNPSLKSRLTISKDTSKNQVVLKVTNMDPADTATYYCARSMITNWYFDVWGAGTTVTVSS
VL: DIQMTQSPSTLSASVGDRVTITCKSQLSVGYMHWYQQKPGKAPKLLIYDTSKLASGVPSRFSGSGSGTEFTLTISSLQPDDFATYYCFQGSGYPFTFGGGTKLEIKR
In the case of B1, the binding result in [1], in [2] and in test [3] was “no binding (tested: 200 nM)” in each case.

B2: v29456 (H1L2) (antibody, human IgG1, kappa)
heavy: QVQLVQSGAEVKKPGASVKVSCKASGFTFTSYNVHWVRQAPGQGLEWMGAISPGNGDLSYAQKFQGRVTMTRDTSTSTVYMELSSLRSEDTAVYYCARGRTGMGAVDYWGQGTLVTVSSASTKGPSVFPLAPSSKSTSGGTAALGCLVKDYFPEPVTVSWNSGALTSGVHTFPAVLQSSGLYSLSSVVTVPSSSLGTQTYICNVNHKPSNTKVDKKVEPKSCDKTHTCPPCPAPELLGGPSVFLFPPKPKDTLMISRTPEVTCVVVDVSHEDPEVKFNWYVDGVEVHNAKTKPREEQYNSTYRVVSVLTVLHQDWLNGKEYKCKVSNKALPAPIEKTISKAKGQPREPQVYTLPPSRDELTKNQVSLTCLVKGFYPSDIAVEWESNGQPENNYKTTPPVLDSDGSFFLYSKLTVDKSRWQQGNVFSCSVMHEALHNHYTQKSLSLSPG
light: DVQMTQSPSSLSASVGDRVTITCRASQDVYSYLNWYQQKPGKAVKLLIYYTSRLQSGVPSRFSGSGSGTDYTLTISSLQPEDFATYYCQQYNIFPWTFGQGTKLEIKRTVAAPSVFIFPPSDEQLKSGTASVVCLLNNFYPREAKVQWKVDNALQSGNSQESVTEQDSKDSTYSLSSTLTLSKADYEKHKVYACEVTHQGLSSPVTKSFNRGEC
notes: Humanized IgG1/kappa; heavy chain ends at G446 (EU); also called humanized antibody variant v29456
In the case of B2, the Kd amounted to 3.2 nM with cynomolgus monkey NaPi2b [4], 10.6 nM with mouse NaPi2b, 1.1 nM in test [8] and 5.2 nM in test [10]. For the same molecule, the Bmax with cynomolgus monkey NaPi2b [5] was 2010; in test [7], 2540; in test [9], 40900. Moreover, the “NS-ELISA binding score (signal over buffer well)” value in test [6] stood at 1.37.
